The supplement of paper PMC9112550, “Optimization of the antimicrobial peptide Bac7 by deep mutational scanning” (BMC Biology, 2022)

Tested on: Escherichia coli TOP10
Assay: shrunken log2 fold change of peptide-encoding DNA abundance (4.5 h post-induction vs induction); higher = less antimicrobial activity (less host growth inhibition)
Conditions: time post-induction: 4.5 h; library: site-saturation at positions 5, 18, 19, 20
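Further: peptides expressed intracellularly from a pBAD plasmid library in pooled LB shake-flask culture, induced with 0.3% L-arabinose, DNA abundance read by NGS, three biological replicates, DESeq2 with apeglm shrinkage.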

Sequence	shrunken log2 fold change
RRIRGRPPRLPRPRPRPHKHPRP	0.0984
RRIRERPPRLPRPRPRPTYQPRP	-0.136
RRIRNRPPRLPRPRPRPLVAPRP	-0.124
RRIRMRPPRLPRPRPRPVFYPRP	-0.0165
RRIRLRPPRLPRPRPRPLQVPRP	0.109
RRIRLRPPRLPRPRPRPTDAPRP	0.193
RRIRPRPPRLPRPRPRPQGLPRP	-0.122
RRIRERPPRLPRPRPRPLDGPRP	-0.0344
RRIRIRPPRLPRPRPRPAEPPRP	-0.21
RRIRIRPPRLPRPRPRPFMEPRP	-0.354
RRIRYRPPRLPRPRPRPPMHPRP	-0.418
RRIRVRPPRLPRPRPRPRLHPRP	0.0296
RRIRMRPPRLPRPRPRPQCQPRP	-0.0148
RRIRARPPRLPRPRPRPREVPRP	0.738
RRIRIRPPRLPRPRPRPFFFPRP	-0.0692
RRIRPRPPRLPRPRPRPADSPRP	-0.0563
RRIRDRPPRLPRPRPRPNFAPRP	0.605
RRIRTRPPRLPRPRPRPMRRPRP	0.00555
RRIRMRPPRLPRPRPRPDGNPRP	0.0626
RRIRERPPRLPRPRPRPCVPPRP	0.0169
RRIRERPPRLPRPRPRPEKQPRP	-0.00177
RRIRHRPPRLPRPRPRPVYHPRP	-0.282
RRIRFRPPRLPRPRPRPVDYPRP	-0.031
RRIRGRPPRLPRPRPRPTWFPRP	0.281
RRIRDRPPRLPRPRPRPWMRPRP	0.013

Sequence	shrunken log2 fold change
RRIRGRPPRLPRPRPRPQAVPRP	0.295
RRIRMRPPRLPRPRPRPKYVPRP	-0.0144
RRIRERPPRLPRPRPRPIFDPRP	-0.349
RRIRIRPPRLPRPRPRPYKLPRP	-1.04
RRIRERPPRLPRPRPRPPVCPRP	-0.119
RRIRRRPPRLPRPRPRPTCCPRP	0.397
RRIRWRPPRLPRPRPRPDRYPRP	-0.0301
RRIRLRPPRLPRPRPRPQTLPRP	-0.0114
RRIRSRPPRLPRPRPRPPIDPRP	-0.0487
RRIRMRPPRLPRPRPRPKVPPRP	0.882
RRIRGRPPRLPRPRPRPPDQPRP	1.14
RRIRVRPPRLPRPRPRPVNPPRP	-0.464
RRIRFRPPRLPRPRPRPTLAPRP	0.361
RRIRLRPPRLPRPRPRPCRKPRP	-0.19
RRIRMRPPRLPRPRPRPRFCPRP	1.63
RRIRSRPPRLPRPRPRPMNQPRP	-0.0276
RRIRSRPPRLPRPRPRPRADPRP	0.387
RRIRHRPPRLPRPRPRPEHPPRP	0.00839
RRIRYRPPRLPRPRPRPDIKPRP	-0.602
RRIRERPPRLPRPRPRPFDYPRP	0.155
RRIRHRPPRLPRPRPRPTACPRP	0.074
RRIRFRPPRLPRPRPRPKKDPRP	0.184
RRIRLRPPRLPRPRPRPMHLPRP	-0.0248
RRIRKRPPRLPRPRPRPLQSPRP	0.295
RRIRFRPPRLPRPRPRPNGRPRP	-0.123

Sequence	shrunken log2 fold change
RRIRKRPPRLPRPRPRPPAGPRP	0.989
RRIRCRPPRLPRPRPRPGMPPRP	-0.257
RRIRPRPPRLPRPRPRPLYSPRP	-0.194
RRIRCRPPRLPRPRPRPSLWPRP	-0.0313
RRIRSRPPRLPRPRPRPSNHPRP	-0.503
RRIRSRPPRLPRPRPRPRVWPRP	0.536
RRIRHRPPRLPRPRPRPGSWPRP	0.112
RRIRNRPPRLPRPRPRPNVAPRP	3.26
RRIRSRPPRLPRPRPRPLNSPRP	-0.327
RRIRDRPPRLPRPRPRPFTWPRP	-0.12
RRIRARPPRLPRPRPRPFEGPRP	0.0201
RRIRGRPPRLPRPRPRPYAKPRP	-0.0213
RRIRGRPPRLPRPRPRPHNIPRP	-0.386
RRIRSRPPRLPRPRPRPVSGPRP	0.00238
RRIRDRPPRLPRPRPRPSHCPRP	-0.29
RRIRLRPPRLPRPRPRPHQKPRP	-0.0932
RRIRPRPPRLPRPRPRPQNAPRP	-0.0677
RRIRMRPPRLPRPRPRPVLLPRP	0.291
RRIRNRPPRLPRPRPRPDQAPRP	-0.01
RRIRARPPRLPRPRPRPMGDPRP	-0.0121
RRIRERPPRLPRPRPRPSQAPRP	0.151
RRIRWRPPRLPRPRPRPCSSPRP	-0.259
RRIRHRPPRLPRPRPRPHYKPRP	-0.973
RRIRKRPPRLPRPRPRPHHFPRP	-0.0062
RRIRLRPPRLPRPRPRPVSPPRP	-0.00493
